# Assay results: US20250019450A1 (DIAGONAL THERAPEUTICS, published 2025)
# B1: DGL407 (bispecific antibody, human IgG1, kappa)
# heavy 1: not shown
# heavy 2: QVQLVESGGGLVRPGGSLRLSCAASGFTFSSNGMHWFRQAPGKGLEWVSSIGSGGTSIYYADSVKGRFTISRDNAKNTLYLQMNSLKSDDTAVYYCSKEVTGATRGQGTQVTVEPKSSDKTHTCPPCPAPEAAGAPSVFLFPPKPKDTLMISRTPEVTCVVVDVSHEDPEVKFNWYVDGVEVHNAKTKPREEQYNSTYRVVSVLTVLHQDWLNGKEYKCKVSNKALPAPIEKTISKAKGQPREPQVCTLPPSRDELTKNQVSLSCAVKGFYPSDIAVEWESNGQPENNYKTTPPVLDSDGSFFLVSKLTVDKSRWQQGNVFSCSVMHEALHNRFTQKSLSLSPG
# light: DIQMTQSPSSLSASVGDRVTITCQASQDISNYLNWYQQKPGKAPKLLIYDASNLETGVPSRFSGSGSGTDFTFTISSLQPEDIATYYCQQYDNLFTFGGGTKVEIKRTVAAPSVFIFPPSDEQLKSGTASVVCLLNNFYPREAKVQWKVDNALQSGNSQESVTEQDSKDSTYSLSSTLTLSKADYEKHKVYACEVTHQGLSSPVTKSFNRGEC
# B2: DGL604 (bispecific antibody, V domains shown)
# V domain 1: QVQLVESGGGLVQAGGSLRLSCAASRSISSFNEMAWYRQAPGEQRELVATIVSTVGFTNYADSVKGRFTISRDNAKNTVYLQMNSLKAEDTAVYYCNARRISTDYWGQGTQVTVEP
# V domain 2: QLQLVESGGGLVQAGGSLRLSCAASGRTFGIHGMGWFRQAPGKEREFAAAIRWSDGTTIHADSVKGRLTISRDNAKNTVYLQMNSLKPEDTAVYYCAATSNPQFGRNWYTVAAGVEYGYWGQGTQVTVEP
# B3: DGL443 (bispecific antibody, human IgG1, lambda)
# heavy 1: not shown
# heavy 2: QVTLRESGPALVKPTQTLTLTCTFSGFSLSTSGMCVSWIRQPPGKALEWLALIYWDDDKYYSTSLKTRLTISKDTSKNQVVLTMTNMDPVDTATYYCARMRRGIEAFDIWGQGTMVTVFSASTKGPSVFPLAPSSKSTSGGTAALGCLVKDYFPEPVTVSWNSGALTSGVHTFPAVLQSSGLYSLSSVVTVPSSSLGTQTYICNVNHKPSNTKVDKKVEPKSCDKTHTCPPCPAPEAAGAPSVFLFPPKPKDTLMISRTPEVTCVVVDVSHEDPEVKFNWYVDGVEVHNAKTKPREEQYNSTYRVVSVLTVLHQDWLNGKEYKCKVSNKALPAPIEKTISKAKGQPREPQVCTLPPSRDELTKNQVSLSCAVKGFYPSDIAVEWESNGQPENNYKTTPPVLDSDGSFFLVSKLTVDKSRWQQGNVFSCSVMHEALHNRFTQKSLSLSPG
# light: QSVLTQPPSVSGAPGQRVTISCTGSSSNIGAGYDVHWYQQLPGTAPKLLIFGYSNRPSGVPVRFSGSKSGTSASLAITGLLAEDEADFYCQSFDISLTGWVFGGGTKLTVLGQPKAAPSVTLFPPSSEELQANKATLVCLISDFYPGAVTVAWKADSSPVKAGVETTTPSKQSNNKYAASSYLSLTPEQWKSHRSYSCQVTHEGSTVEKTVAPTECS
# B4: DGL415 (bispecific antibody, human IgG1, kappa)
# heavy 1: not shown
# heavy 2: QVQLVESGGGLVQAGGSLRLSCAASGRTFSRYRMGWFRQAPGKEREFVAAITKSGATTYDADSVKGRFTISRDNAKNTLYLQMNSLKPEDTAVYYCAASYHSNWWPKNADEYAYWGQGTQVTVEPKSSDKTHTCPPCPAPEAAGAPSVFLFPPKPKDTLMISRTPEVTCVVVDVSHEDPEVKFNWYVDGVEVHNAKTKPREEQYNSTYRVVSVLTVLHQDWLNGKEYKCKVSNKALPAPIEKTISKAKGQPREPQVCTLPPSRDELTKNQVSLSCAVKGFYPSDIAVEWESNGQPENNYKTTPPVLDSDGSFFLVSKLTVDKSRWQQGNVFSCSVMHEALHNRFTQKSLSLSPG
# light: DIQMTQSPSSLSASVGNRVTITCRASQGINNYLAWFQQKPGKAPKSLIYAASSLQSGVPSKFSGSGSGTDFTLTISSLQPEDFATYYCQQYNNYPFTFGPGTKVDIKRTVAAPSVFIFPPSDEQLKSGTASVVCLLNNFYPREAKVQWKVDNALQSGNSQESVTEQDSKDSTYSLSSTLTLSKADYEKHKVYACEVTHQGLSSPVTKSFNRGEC
# B5: DGL400 (bispecific antibody, human IgG1, kappa)
# heavy 1: not shown
# heavy 2: B4 heavy 2
# light: DIQLTQSPSFLSASVGDRVTITCRASQGISSYLAWYQQKPGKAPKVLIYAASTLQSGVPSRFSGSGSGTEFTLTISSLLPEDFATYFCQQLHRYPYTFGQGAKLEIKRTVAAPSVFIFPPSDEQLKSGTASVVCLLNNFYPREAKVQWKVDNALQSGNSQESVTEQDSKDSTYSLSSTLTLSKADYEKHKVYACEVTHQGLSSPVTKSFNRGEC
# B6: DGL442 (bispecific antibody, human IgG1, lambda)
# heavy 1: not shown
# heavy 2: QVHLQESGPGLVKPSETLSLTCTVSGGSISYYYWNWIRQPPGKGLEWIASIYNSGNINYNPSLKSRVTISVDTSKNQFSLKLTSVTAADTAVYYCARGGYSYGYFDNWGQGILVTVSSASTKGPSVFPLAPSSKSTSGGTAALGCLVKDYFPEPVTVSWNSGALTSGVHTFPAVLQSSGLYSLSSVVTVPSSSLGTQTYICNVNHKPSNTKVDKKVEPKSCDKTHTCPPCPAPEAAGAPSVFLFPPKPKDTLMISRTPEVTCVVVDVSHEDPEVKFNWYVDGVEVHNAKTKPREEQYNSTYRVVSVLTVLHQDWLNGKEYKCKVSNKALPAPIEKTISKAKGQPREPQVCTLPPSRDELTKNQVSLSCAVKGFYPSDIAVEWESNGQPENNYKTTPPVLDSDGSFFLVSKLTVDKSRWQQGNVFSCSVMHEALHNRFTQKSLSLSPG
# light: SYELTQPPSVSVSPGQTASITCSGRELGNKYAYWYQQKPGQSPVLVIYEDYKRPSGIPERFSGSNSGNTATLTISGTQAMDEADYYCQAWDSSTVIFGGGTKLTVLGQPKAAPSVTLFPPSSEELQANKATLVCLISDFYPGAVTVAWKADSSPVKAGVETTTPSKQSNNKYAASSYLSLTPEQWKSHRSYSCQVTHEGSTVEKTVAPTECS
# B7: DGL430 (bispecific antibody, human IgG1, lambda)
# heavy 1: not shown
# heavy 2: B6 heavy 2
# light: B6 light
# B8: DGL425 (bispecific antibody, human IgG1, kappa)
# heavy 1: not shown
# heavy 2: EVQLVQSGTEVKKPGESLKISCKGSGYSFTSYWIGWVRQMPGKGLEWMGNIYPGDSDTRYSPSFQGHVTISADKSISTAYLQWSSLKASDTAMYYCARRGGGYWGQGTLVTVSSASTKGPSVFPLAPSSKSTSGGTAALGCLVKDYFPEPVTVSWNSGALTSGVHTFPAVLQSSGLYSLSSVVTVPSSSLGTQTYICNVNHKPSNTKVDKKVEPKSCDKTHTCPPCPAPEAAGAPSVFLFPPKPKDTLMISRTPEVTCVVVDVSHEDPEVKFNWYVDGVEVHNAKTKPREEQYNSTYRVVSVLTVLHQDWLNGKEYKCKVSNKALPAPIEKTISKAKGQPREPQVCTLPPSRDELTKNQVSLSCAVKGFYPSDIAVEWESNGQPENNYKTTPPVLDSDGSFFLVSKLTVDKSRWQQGNVFSCSVMHEALHNRFTQKSLSLSPG
# light: not shown
# B9: DGL547 (bispecific antibody, V domains shown)
# V domain 1: EVQLVESGGGLVQPGGSLRLSCAASGFTLDYYAIGWFRQAPGKEREGVSCISSSDRSTWYADSVKGRFTISRDNAKNTVYLQMHSLKPEDTAVYYCATPCYSDYDPEGYEYDYWGQGTQVTVEP
# V domain 2: QLQLVESGGGLVQAGGSLRLSCAASGLTFSGYTVGWFRQAPGKEREFVAAINWSSAYTYSEFVKGRFTISRDNAKNTVYLQMSSLKPEDTAVYYCAAQRSRTSWYASTAEAYDYWGQGTQVTVEP
# B10: DGL427 (bispecific antibody, human IgG1, kappa)
# heavy 1: not shown
# heavy 2: EVLLVESGGGLVKPGGSLRLSCAASGFTFSSYSMNWVRQAPGKGLEWVSSISSSSDYIHYADSVRGRFTISRDNAKNSLYLQMNSLRAEDTAVYYCARSELGFDYWGQGTLVTVSSASTKGPSVFPLAPSSKSTSGGTAALGCLVKDYFPEPVTVSWNSGALTSGVHTFPAVLQSSGLYSLSSVVTVPSSSLGTQTYICNVNHKPSNTKVDKKVEPKSCDKTHTCPPCPAPEAAGAPSVFLFPPKPKDTLMISRTPEVTCVVVDVSHEDPEVKFNWYVDGVEVHNAKTKPREEQYNSTYRVVSVLTVLHQDWLNGKEYKCKVSNKALPAPIEKTISKAKGQPREPQVCTLPPSRDELTKNQVSLSCAVKGFYPSDIAVEWESNGQPENNYKTTPPVLDSDGSFFLVSKLTVDKSRWQQGNVFSCSVMHEALHNRFTQKSLSLSPG
# light: DIQMTQSPSSVSASVGDRVTITCRASQGISIWLAWYQQKPGKAPKPLIYAASSLQSGVPSRFSGSGSGTDFTLTISSLQPEDFATYYCQQANSFPLTFGGGTKVEIKRTVAAPSVFIFPPSDEQLKSGTASVVCLLNNFYPREAKVQWKVDNALQSGNSQESVTEQDSKDSTYSLSSTLTLSKADYEKHKVYACEVTHQGLSSPVTKSFNRGEC
# B11: DGL525 (bispecific antibody, V domains shown)
# V domain 1: EVQLVESGGGLVQPGGSLRLFCAASRSIFNINIMGWYRQAPGKQREWLASITSGGSTFYADSVKDRFTISRDSVKNTVYLQMNSLKPEDTAAYYCNRYRSVPLNTVYPWGQGTLVTVEP
# V domain 2: QVQLVESGGGLVQAGGSLRLSCAASGRTFSSYAMGWFRQAPGKEREFVSAISWSGLSTYYVESVQGRFTISRDNAKNTVYLQMNSLKPEDTAVYYCAASRIYTNYVARSYEYDDWGQGTQVTVEP
# B12: DGL440 (bispecific antibody, human IgG1, lambda)
# heavy 1: not shown
# heavy 2: QVQLVQPGAEVKKPGASVKVSCKASGYTFTGYYMHWVRQAPGQGLEWMGWINPKSGGTNYAQKFQGRVTMTRDTSISTAYMELTRLRSDDTAVYYCARDQGYGDYVLKHWGQGTLVTVSSASTKGPSVFPLAPSSKSTSGGTAALGCLVKDYFPEPVTVSWNSGALTSGVHTFPAVLQSSGLYSLSSVVTVPSSSLGTQTYICNVNHKPSNTKVDKKVEPKSCDKTHTCPPCPAPEAAGAPSVFLFPPKPKDTLMISRTPEVTCVVVDVSHEDPEVKFNWYVDGVEVHNAKTKPREEQYNSTYRVVSVLTVLHQDWLNGKEYKCKVSNKALPAPIEKTISKAKGQPREPQVCTLPPSRDELTKNQVSLSCAVKGFYPSDIAVEWESNGQPENNYKTTPPVLDSDGSFFLVSKLTVDKSRWQQGNVFSCSVMHEALHNRFTQKSLSLSPG
# light: SYVLTQPPSVSVAPGQTARITCGGDNIGSKSVHWYQQKPGQAPVPVVYDDSDRPSGIPERFSGSNSGNTATLTISRVEAGDEADYYCQVWDSSSDHVVFGGGTKLTVLGQPKAAPSVTLFPPSSEELQANKATLVCLISDFYPGAVTVAWKADSSPVKAGVETTTPSKQSNNKYAASSYLSLTPEQWKSHRSYSCQVTHEGSTVEKTVAPTECS
# Target: human IL-12 receptor (IL-12Rβ1 and IL-12Rβ2) on HEK-Blue IL-12 cells (human, UniProt P42701 24-662; Q99665 24-862)
# Sequence (Q99665 24-862, chain 2 of 2, other chains not shown): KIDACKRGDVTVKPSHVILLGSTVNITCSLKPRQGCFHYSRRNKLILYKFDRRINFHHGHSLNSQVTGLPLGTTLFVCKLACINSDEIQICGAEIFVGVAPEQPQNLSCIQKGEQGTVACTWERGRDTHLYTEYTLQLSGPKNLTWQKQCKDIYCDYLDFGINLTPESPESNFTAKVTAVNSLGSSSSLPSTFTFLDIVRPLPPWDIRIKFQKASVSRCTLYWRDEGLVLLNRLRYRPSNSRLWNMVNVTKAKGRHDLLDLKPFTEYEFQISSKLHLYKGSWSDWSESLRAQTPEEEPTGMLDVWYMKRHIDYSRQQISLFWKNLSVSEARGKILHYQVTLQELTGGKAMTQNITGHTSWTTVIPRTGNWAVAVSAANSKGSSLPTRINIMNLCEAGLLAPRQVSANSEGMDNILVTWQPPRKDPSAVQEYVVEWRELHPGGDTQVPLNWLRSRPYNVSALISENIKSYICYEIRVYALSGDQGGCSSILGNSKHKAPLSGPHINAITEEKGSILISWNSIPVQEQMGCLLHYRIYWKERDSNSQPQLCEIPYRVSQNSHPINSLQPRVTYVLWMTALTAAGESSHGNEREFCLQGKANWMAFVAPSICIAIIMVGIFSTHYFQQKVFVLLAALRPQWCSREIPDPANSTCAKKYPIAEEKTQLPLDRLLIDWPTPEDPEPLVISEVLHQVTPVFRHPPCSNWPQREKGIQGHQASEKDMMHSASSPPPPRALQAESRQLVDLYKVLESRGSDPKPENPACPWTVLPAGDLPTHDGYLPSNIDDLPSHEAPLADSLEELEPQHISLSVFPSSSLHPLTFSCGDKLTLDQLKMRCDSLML
# Assay: cell-based or functional assay
row,Binder,Max Absorbance
1,B1,0.17
2,B2,0.23
3,B3,0.24
4,B4,0.23
5,B5,0.21
6,B6,0.22
7,B7,0.21
8,B8,0.19
9,B9,0.18
10,B10,0.25
11,B11,0.21
12,B12,0.22
